Measured values published in patent US12084513 (dated 2024).

T1: human C1s (human)
T1 chain: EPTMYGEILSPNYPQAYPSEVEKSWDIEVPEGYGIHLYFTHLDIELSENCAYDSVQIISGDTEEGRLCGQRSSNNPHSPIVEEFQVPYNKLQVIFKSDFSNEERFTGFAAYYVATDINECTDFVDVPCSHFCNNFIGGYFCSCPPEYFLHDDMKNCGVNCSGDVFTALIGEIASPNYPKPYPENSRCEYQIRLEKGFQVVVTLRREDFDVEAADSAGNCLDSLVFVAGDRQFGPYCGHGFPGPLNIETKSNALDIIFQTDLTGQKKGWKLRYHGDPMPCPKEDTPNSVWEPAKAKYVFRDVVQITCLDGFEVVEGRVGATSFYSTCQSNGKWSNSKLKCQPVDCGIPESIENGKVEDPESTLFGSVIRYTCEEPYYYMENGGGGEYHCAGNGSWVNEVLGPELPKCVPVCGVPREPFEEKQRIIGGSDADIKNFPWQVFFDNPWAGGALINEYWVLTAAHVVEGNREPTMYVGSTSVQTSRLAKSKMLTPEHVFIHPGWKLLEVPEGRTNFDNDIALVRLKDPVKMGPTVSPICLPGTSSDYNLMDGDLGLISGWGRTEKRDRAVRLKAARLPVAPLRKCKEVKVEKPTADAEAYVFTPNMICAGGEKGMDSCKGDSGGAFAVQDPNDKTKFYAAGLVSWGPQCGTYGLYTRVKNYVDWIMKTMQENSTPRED


What was measured:
human C1s [1] = target: T1, human C1s; assay: SPR pH 7.4 37C
human C1s [2] = target: T1, human C1s; assay: SPR pH 5.8 37C
human C1s [3] = target: T1, human C1s; assay: SPR pH 5.8 low Ca 37C
human C1s [4] = target: T1, human C1s; assay: SPR pH 7.4 37C
human C1s [5] = target: T1, human C1s; assay: SPR pH 7.4 37C
human C1s [6] = target: T1, human C1s; assay: SPR pH 5.8 37C
human C1s [7] = target: T1, human C1s; assay: SPR pH 5.8 37C, low response
human C1s [8] = target: T1, human C1s; assay: SPR pH 5.8 low Ca 37C, low response
human C1s [9] = target: T1, human C1s; assay: SPR pH 7.4 37C
human C1s [10] = target: T1, human C1s; assay: SPR pH 5.8 low Ca 37C, low response
human C1s [11] = target: T1, human C1s; assay: SPR pH 7.4 37C, low response
human C1s [12] = target: T1, human C1s; assay: SPR pH 5.8 37C, low response
human C1s [13] = target: T1, human C1s; assay: SPR pH 5.8 37C
human C1s [14] = target: T1, human C1s; assay: SPR pH 7.4 37C
human C1s [15] = target: T1, human C1s; assay: SPR pH 5.8 37C

Kd (human C1s [2]) | Kd (human C1s [3]) | Kd (human C1s [4]) | Kd (human C1s [5]) | Kd (human C1s [6]) | Kd (human C1s [10]) | Binder | also measured
83.1 nM |  | 1.11 nM |  |  |  | IPN92H0288/IPN93L0211 (antibody, V domains shown) VH: EVMLVESGGGLVKPGGSLRLSCAASGFTFSNYAMSWVRQAPGKGLEWVATISSGGSHTYELDSVDGRFTISRDNSKDTLYLQMNSLRAEDTALYYCARLFTKHAMDYWGQGTLVTVSS VL: QIVLTQSPATLSLSPGERATLSCTASSEVSESYLHWYQQKPGKAPKLWIYSTSNLASGVPSRFSGSGSGTDYTLTISSLQPEDFATYYCHQYYRLHPITFGQGTKLEIK | Kd (human C1s [7]): 16.5 nM; Kd (human C1s [8]): 10.4 nM; Kd (human C1s [9]): 1.67 nM
0.931 nM | 9.57 nM | 1.01 nM | 0.79 nM | 0.515 nM |  | IPN92H0033/IPN009VK3 (antibody, V domains shown) VH: EVMLVESGGGLVKPGGSLRLSCAASGFTFSNYAMSWVRQAPGKGLEWVATISSGGSHTYYLDSVKGRFTISRDNSKDTLYLQMNSLRAEDTALYYCARLFTGHAMDYWGQGTLVTVSS VL: QIVLTQSPATLSLSPGERATLSCTASSSVSSSYLHWYQQKPGKAPKLWIYSTSNLASGVPSRFSGSGSGTDYTLTISSLQPEDFATYYCHQYYRLPPITFGQGTKLEIK | 
 |  |  |  |  | 13.9 nM | IPN92H0033/IPN93L0031 (antibody, V domains shown) VH: EVMLVESGGGLVKPGGSLRLSCAASGFTFSNYAMSWVRQAPGKGLEWVATISSGGSHTYYLDSVKGRFTISRDNSKDTLYLQMNSLRAEDTALYYCARLFTGHAMDYWGQGTLVTVSS VL: QIVLTQSPATLSLSPGERATLSCTASSSVSSSYLHWYQQKPGKAPKLWIYSTSNLASGVPSRFSGSGSGTDYTLTISSLQPEDFATYYCHQYHRHHPITFGQGTKLEIK | Kd (human C1s [11]): 3.59 nM; Kd (human C1s [12]): 2.59 nM
11.9 nM |  | 2.51 nM |  |  | 5.3 nM | IPN92H0033/IPN93L0024 (antibody, V domains shown) VH: EVMLVESGGGLVKPGGSLRLSCAASGFTFSNYAMSWVRQAPGKGLEWVATISSGGSHTYYLDSVKGRFTISRDNSKDTLYLQMNSLRAEDTALYYCARLFTGHAMDYWGQGTLVTVSS VL: QIVLTQSPATLSLSPGERATLSCTASSSVSSSYLHWYQQKPGKAPKLWIYSTSNLASGVPSRFSGSGSGTDYTLTISSLQPEDFATYYCHQYYRLHPITFGQGTKLEIK | Kd (human C1s [13]): 8.66 nM; Kd (human C1s [14]): 2.9 nM
38.1 nM |  | 1.34 nM |  |  |  | IPN92H0307/IPN93L0058 (antibody, V domains shown) VH: EVMLVESGGGLVKPGGSLRLSCAASGFEFENYAMSWVRQAPGKGLEWVATISSGGSHTYELDSVDGRFTISRDNSKDTLYLQMNSLRAEDTALYYCARLFTKHAMDYWGQGTLVTVSS VL: QIVLTQSPATLSLSPGERATLSCTASSEVSSSYLHWYQQKPGKAPKLWIYSTSNLASGVPSRFSGSGSGTDYTLTISSLQPEDFATYYCHQYYRLHPITFGQGTKLEIK | Kd (human C1s [8]): 4.95 nM; Kd (human C1s [9]): 1.93 nM; Kd (human C1s [15]): 19.5 nM
40.1 nM |  | 0.611 nM |  |  |  | IPN92H0288/IPN93L0058 (antibody, V domains shown) VH: EVMLVESGGGLVKPGGSLRLSCAASGFTFSNYAMSWVRQAPGKGLEWVATISSGGSHTYELDSVDGRFTISRDNSKDTLYLQMNSLRAEDTALYYCARLFTKHAMDYWGQGTLVTVSS VL: QIVLTQSPATLSLSPGERATLSCTASSEVSSSYLHWYQQKPGKAPKLWIYSTSNLASGVPSRFSGSGSGTDYTLTISSLQPEDFATYYCHQYYRLHPITFGQGTKLEIK | Kd (human C1s [8]): 7.96 nM; Kd (human C1s [9]): 0.838 nM; Kd (human C1s [15]): 19.5 nM
 |  |  |  |  | 7.59 nM | IPN92H0033/IPN93L0021 (antibody, V domains shown) VH: EVMLVESGGGLVKPGGSLRLSCAASGFTFSNYAMSWVRQAPGKGLEWVATISSGGSHTYYLDSVKGRFTISRDNSKDTLYLQMNSLRAEDTALYYCARLFTGHAMDYWGQGTLVTVSS VL: QIVLTQSPATLSLSPGERATLSCTASSSVSSSYLHWYQQKPGKAPKLWIYSTSNLASGVPSRFSGSGSGTDYTLTISSLQPEDFATYYCHQHYRLPPITFGQGTKLEIK | Kd (human C1s [13]): 5.01 nM; Kd (human C1s [14]): 1.92 nM

The remaining lines, values behind:

Binder | Kd (human C1s [2]) | Kd (human C1s [3]) | Kd (human C1s [4]) | Kd (human C1s [5]) | Kd (human C1s [6]) | Kd (human C1s [10]) | also measured
IPN009VH2/IPN009VK3 (antibody, V domains shown) VH: EVMLVESGGGLVKPGGSLRLSCAASGFTFSNYAMSWVRQAPGKGLEWVATISSGGSHTYYLDSVKGRFTISRDNSKDTLYLQMNSLRAEDTALYYCARLFTGYAMDYWGQGTLVTVSS VL: QIVLTQSPATLSLSPGERATLSCTASSSVSSSYLHWYQQKPGKAPKLWIYSTSNLASGVPSRFSGSGSGTDYTLTISSLQPEDFATYYCHQYYRLPPITFGQGTKLEIK | 0.449 nM | 3.37 nM | 1.19 nM | 0.824 nM | 0.164 nM |  | Kd (human C1s [1]): 1.24 nM
IPN009VH2/IPN93L0031 (antibody, V domains shown) VH: EVMLVESGGGLVKPGGSLRLSCAASGFTFSNYAMSWVRQAPGKGLEWVATISSGGSHTYYLDSVKGRFTISRDNSKDTLYLQMNSLRAEDTALYYCARLFTGYAMDYWGQGTLVTVSS VL: QIVLTQSPATLSLSPGERATLSCTASSSVSSSYLHWYQQKPGKAPKLWIYSTSNLASGVPSRFSGSGSGTDYTLTISSLQPEDFATYYCHQYHRHHPITFGQGTKLEIK |  |  |  |  |  | 4960 nM | Kd (human C1s [11]): 0.168 nM; Kd (human C1s [12]): 23.9 nM
IPN92H0012/IPN009VK3 (antibody, V domains shown) VH: EVMLVESGGGLVKPGGSLRLSCAASGFTFSNYAMSWVRQAPGKGLEWVATHSSGGSHTYYLDSVKGRFTISRDNSKDTLYLQMNSLRAEDTALYYCARLFTGYAMDYWGQGTLVTVSS VL: QIVLTQSPATLSLSPGERATLSCTASSSVSSSYLHWYQQKPGKAPKLWIYSTSNLASGVPSRFSGSGSGTDYTLTISSLQPEDFATYYCHQYYRLPPITFGQGTKLEIK |  |  |  |  |  |  | Kd (human C1s [1]): 10.5 nM
IPN009VH2/IPN93L0021 (antibody, V domains shown) VH: EVMLVESGGGLVKPGGSLRLSCAASGFTFSNYAMSWVRQAPGKGLEWVATISSGGSHTYYLDSVKGRFTISRDNSKDTLYLQMNSLRAEDTALYYCARLFTGYAMDYWGQGTLVTVSS VL: QIVLTQSPATLSLSPGERATLSCTASSSVSSSYLHWYQQKPGKAPKLWIYSTSNLASGVPSRFSGSGSGTDYTLTISSLQPEDFATYYCHQHYRLPPITFGQGTKLEIK | 4.34 nM | 9.54 nM | 2.92 nM | 2.68 nM | 3.21 nM |  | 
IPN009VH2/IPN93L0024 (antibody, V domains shown) VH: EVMLVESGGGLVKPGGSLRLSCAASGFTFSNYAMSWVRQAPGKGLEWVATISSGGSHTYYLDSVKGRFTISRDNSKDTLYLQMNSLRAEDTALYYCARLFTGYAMDYWGQGTLVTVSS VL: QIVLTQSPATLSLSPGERATLSCTASSSVSSSYLHWYQQKPGKAPKLWIYSTSNLASGVPSRFSGSGSGTDYTLTISSLQPEDFATYYCHQYYRLHPITFGQGTKLEIK | 4.32 nM | 22.3 nM | 3.4 nM | 2.46 nM | 3.87 nM |  | 
